From patent US7494645B2, “Lipid phosphate phosphatases and uses thereof for treating neuronal diseases” (Charite Universitaetsmedzin-Berlin, priority 2002, dated 2009)
“Also recorded” adds a separate entry of the source.

Experiments:
[1] = test system: N1E-115 mouse neuroblastoma cells; assay: LPA induced neurite retraction and protection in transfected N1E-115 cells; assay type: cell-based
Text: The rat PRG-1 full length clone was amplified by Marathon PCR (Clontech, USA) from adult rat hippocampus RNA (SEQ ID No. 17). For transfection studies, the full length PRG-1 coding sequence was fused to EGFP (pEGFP-N1 vector Clontech, USA). The PRG-1^His/Lys exchange mutant at the catalytic histidine (His-252) was introduced in the same protein fusion vector by site specific mutagenesis (CAT to AAG).
(§1) N1E-115 mouse neuroblastoma cells (ATCC: CRL-2263) were routinely grown in DMEM medium supplemented with selenium-defined fetal bovine serum (10%). The cells were seeded on baked glass cover slides at a density of 10,000 cells/cm^2. The next day, cells were transfected with the cationic lipids procedure (FuGene6, Roche, Germany) and cultivated for 24 h. Serum-starvation was performed for 20 h in DMEM medium, followed by treatment with 10 μmol/l oleoyl-LPA or vehicle (0.9% sodium chloride) (K. Jalink et al (1993) Cell Growth Differ. 4:247-255). After 10 min, cells were fixed in 4% paraformaldehyde for 20 min at room temperature and further analysis processed as described above. Images were taken with a CCD camera on an Olympus BX-50 microscope. Quantification was performed with the Meta Morph analysis system (University Imaging, PA). For statistical analysis Statview II was used (Abacus, USA). The effects of transfection on cell viability were analysed by MTT assay and propidium iodide staining (Savaskan N. E. et al. (2002) FASEB J. 17:112-114).

entorhinal explants = assay: LPA induced neurite retraction in entorhinal explants; assay type: cell-based, rat; settings: 100 nmol/l LPA, 10 min
Procedure: Entorhinal explants from E16 and P0 rat pups were obtained from timed-pregnant Wistar rats and were cultivated as described (N. E. Savaskan (2000) Eur. I. Neurosci 12:1024-1032). In brief, entorhinal cortex was carefully dissected from the hippocampal anlage and the meninges were removed. Explants were gently transferred with a fire-polished Pasteur pipette into 12-well plates and cultivated on baked glass cover slides coated with laminin and poly-L-lysin (25 μg/ml and 10 μg/ml, respectively) in culture medium containing selenium-defined fetal bovine serum [5%] (N. E. Savaskan et al (2000) FASEB J. e-published) (Neurobasal medium plus 25 μg/ml Penicillin/Streptomycin; B-27 supplement). After 24 h, culture medium was exchanged and cultivation was further performed in serum-free Neurobasalmedium for 20 h. Serum-starved explants were treated with 100 nmol/l oleoyl-LPA (5 mmol/l stock solution in ultra-filtrated water) for 10 min or with vehicle (0.9% NaCl) and then fixed in 4% paraformaldehyde for 20 min. For F-actin staining, fixed tissues were incubated with TRITC-phalloidin (0.1 μg/ml, Sigma, Germany) for 40 min, followed by incubation with HOECHST 33258 dye (1:20,000, Sigma, Germany) for 5 min at room temperature. […] Images were taken with a CCD camera on an Olympus BX-50 microscope and quantification was performed using the Meta Morph analysis system (Universal Imaging, PA). […]

PRG-3 mRNA = PRG-3 mRNA in situ hybridization after kainate administration in vivo; design: species or system rat; settings: 10 mg/kg i.p.
Text: For hybridization, we used two antisense oligonucleotides which both gave essentially the same hybridization signal: 5′-GCAGAGGTCTGAATTCTAGTGTCTATCGTTATAGTTCCTTAACAGTGTGGG-3′ (SEQ ID NO. 37) and 5′-CATCCTTCTGTAGTAGCTTTCTGCCTCTGCCTCCACTTCTCTCT-3′ (SEQ ID NO. 38) complementary to rat PRG-3 sequence (SEQ ID NO. 23). The oligonucleotide was synthesized by Metabion (Munich, Germany). The specificity was confirmed by a BLAST GenBank search to rule out cross-hybridization with other genes. We used the protocol as previously described (Brauer et al., 2001, supra).
Six rats, weighing 200-300 g, were weight-paired (±10 g per pair). These animals received a single i.p. injection of kainic acid (10 mg/kg bodyweight; from Ocean Products Int., Canada) freshly dissolved in 0.9% saline. Behavior was then observed constantly for 24 hr via video time lapse recordings. […] Severity of seizures was scored for 4 h after kainate injection using the classification of Zhang et al. […] Nissl-positive undamaged neurons were counted in five coronal brain sections per animal (sections were chosen by unbiased sampling), and the mean number of cells per section were determined such that the value obtained for each rat represents an average total number of neurons counted per section (250 μm by 250 μm square in the middle of the CA1 region). […]

N1E-115 cells [2] = assay: Cell viability of N1E-115 cells after transfection (MTT assay, propidium iodide staining); assay type: cell-based, mouse; settings: 48-72 h after transfection
Procedure: as §1

[3] = test system: hyperphosphorylated tau protein; assay: Tau hyperphosphorylation in neurons overexpressing PRG-1 (cell culture model); assay type: cell-based
Text: Alzheimer's disease is characterized by intracellular neurofibrillary tangle formation formed by tau-based paired helical filaments (PHF) and by extracellular beta-amyloid plaques. The degree of Alzheimer dementia correlates well with the severity of PHF occurrence. These PHF are formed by hyperphosphorylated tau formation. […] To gain insights into the functional role of PRG-1 in Alzheimer's pathology we used an established cell culture model.

N1E-115 cells [4] = assay: Ecto-phosphatase activity (extracellular LPA degradation) in transfected N1E-115 cells; assay type: cell-based, mouse
Procedure: The assay procedures used were adapted from those described in Imai et al. (2000) J. Clin. Endocrinol. Metab 85:3370-3375 and Hooks S. B. et al. (2001) J. Biol. Chem. 276:4611-4621. Briefly, transfected cells were harvested after serum-free cultivation for 20 h by scraping in lysis buffer (containing 20 mmol/l HEPES pH 7.4, 1 mmol/l NaHCO3, 500 μmol/l DTT, 1 mmol/l EGTA) and sonicated with two strokes (Bandolin GM 70, Germany). After centrifugation at 800×g, the supernatant was diluted in lysis buffer and centrifuged at 100,000×g for 1 h. Alternatively, the supernatant was topped on a sucrose step gradient (50% and 5%) and centrifuged at 100,000×g for 1 h (Savaskan, N. E. et al. (2000) Eur. J. Neurosci. 12:1024-1032. The resulting pellet and interphase, respectively, were re-homogenized and centrifuged again at 100,000×g for 1 h. The crude membrane pellet was re-suspended in reaction buffer (50 mmol/l HEPES pH 7,5; 1 mmol/l EGTA) and protein concentration was determined spectroscopically by Bradford protein assay (Amersham, Germany). Assessment of LPA metabolism was performed with exogenous ^3H-oleoeyl-LPA (Perkin Elmer, Germany) measuring ^3H-oleoeyl-glycerol production. […] All fractions of dried plates were scintillation counted and compared with authentic standards (LPA, 1-monoolein, 1,2-monoolein, oleic acid). […]

1- or 2-oleoyl-lysophosphatidic acid [LPA]
LPA-induced growth cone collapse of N1E-115 cells ([1]; eGFP-only transfected cells, 10 μmol/l LPA, 10 min): uniformly sensitive | neurite retraction in embryonic entorhinal explants (entorhinal explants; E16 explants (no PRG-1 expression), n=20): rapid neurite retraction | neurite retraction in postnatal entorhinal explants (entorhinal explants; P0 explants (express PRG-1), n=22): did not differ significantly from vehicle treated control cultures

C=C(C)[C@H]1CN[C@H](C(=O)O)[C@H]1CC(=O)O [kainic acid]
PRG-3 mRNA expression in hippocampus (PRG-3 mRNA; five days after kainic acid application): comparable levels to the adult non-treated controls | PRG-3 mRNA expression in hippocampus (PRG-3 mRNA; six hours after kainic acid application): rapid PRG-3 repression

B1: PRG-1: plasticity-related gene 1 protein, lipid phosphate phosphatase; rat full length clone expressed by transfection (protein)
chain: MQRAGSSGARGECDISGTGRLRLEQAARLGGRAVHTSPTGGLGARQVAGMSAKERPKGKVIKDSVTLLPCFYFVELPILASSVVSLYFLELTDVFKPVHSGFSCYDRSLSMPYIEPTQEAIPFLMLLSLAFAGPAITIMVGEGILYCCLSKRRNGAGLEPNINAGGCNFNSFLRRAVRFVGVHVVGLCSTALITDIIQLATGYQAPYFLTVCKPMYTSLEGSCKENSYIVEEICSGSDLTVINNGKKSFPSQHATLAAFAAVYVSMYFNSTLTDSSKLLKPLLVFTFIICGIICGLTRITQYKNHPVDVYCGFLIGGGIALYLGLYAVGNFLPSEDSMLQHRDALRSLTDLNQDPSRVLSAKNGSSGDGIAHTEGILNRNHRDASSLTNLKRANADVEIITPRSPMGKESMVTFSNTLPRANTPSVEDPVRRNASIHASMDSARSKQLLTQWKSKNESRKMSLQVMDSEPEGQSPPRSIEMRSSSEPSRVGVNGDHHVPGNQYLKIQPGTVPGCNNSMPAGPRVSIQSRPGSSQLVHIPEETQENISTSPKSSSARAKWLKAAEKTVACNRGNNQPRIMQVIAMSKQQGVLQSSPKNAEGSTVTCTGSIRYKTLTDHEPSGIVRVEAHPENNRPIIQIPSSTEGEGSGSWKWKAPEKSSLRQTYELNDLNRDSESCESLKDSFGSGDRKRKHIDSNEHHHHGITTIRVTPVEGSEIGSETLSVSSSRDSTLRRKGNIILIPERSNSPENTRNIFYKGTSPTRPYKD
increase of LPA needed to overcome resistance against growth cone collapse ([1]; PRG-1 overexpressing N1E-115 cells, LPA dose response): 10 fold | protection against LPA-induced growth cone collapse / retraction of processes ([1]; transfected N1E-115 cells, 10 μmol/l LPA): resistance of N1E-115 cells to LPA-induced growth cone collapse; also recorded: did not prevent CPA-induced retraction of processes | LPA-induced actin-polymerization ([1]; transfected N1E-115 cells, phalloidin staining): prevented LPA-induced actin-polymerization | cell viability (N1E-115 cells [2]): unaffected | hyperphosphorylated tau and PHF formation ([3]; PRG-1 overexpression, tau hyperphosphorylation induced with okadaic acid or LPA): significantly decrease | hyperphosphorylated tau protein ([3]; neurons overexpressing PRG-1 vs control transfected cells): significant reduction | increase in ecto-phosphatase activity compared to eGFP transfection alone (N1E-115 cells [4]): 5 fold
